US20220389118A1 (Chugai, published 2022)
Numbering of substitutions follows the chain as printed.

B1: Fv4-F1380 (antibody, human IgG1, kappa)
heavy: QVQLQESGPGLVKPSETLSLTCAVSGHSISHDHAWSWVRQPPGEGLEWIGFISYSGITNYNPSLQGRVTISRDNSKNTLYLQMNSLRAEDTAVYYCARSLARTTAMDYWGEGTLVTVSSASTKGPSVFPLAPSSKSTSGGTAALGCLVKDYFPEPVTVSWNSGALTSGVHTFPAVLQSSGLYSLSSVVTVPSSSLGTQTYICNVNHKPSNTKVDKKVEPKSCDKTHTCPPCPAPELLGGPSVFLFPPKPKDTLMISRTPEVTCVVVDVSHEDPEVKFNWYVDGVEVHNAKTKPREEQYNSTYRVVSVLTVLHQDWLNGKEYKCKVSNKALPAPIEKTISKAKGQPREPQVYTLPPSRDELTKNQVSLTCLVKGFYPSDIAVEWESNGQPENNYKTTPPVLDSDGSFFLYSKLTVDKSRWQQGNVFSCDVLHEALHSHYTQKSLSLSP
light: DIQMTQSPSSLSASVGDSVTITCQASTDISSHLNWYQQKPGKAPELLIYYGSHLLSGVPSRFSGSGSGTDFTFTISSLEAEDAATYYCGQGNRLPYTFGQGTKVEIERTVAAPSVFIFPPSDEQLKSGTASVVCLLNNFYPREAKVQWKVDNALQSGNSQESVTEQDSKDSTYSLSSTLTLSKADYEKHKVYACEVTHQGLSSPVTKSFNRGEC
notes: Variant of Fv4-LS; copies: 2 + 2
B2: Fv4-F1381 (antibody, human IgG1, kappa)
heavy: B1 heavy with D428E
light: B1 light
notes: as for B1
B3: Fv4-F1382 (antibody, human IgG1, kappa)
heavy: B1 heavy with D428K
light: B1 light
notes: as for B1
B4: Fv4-F1383 (antibody, human IgG1, kappa)
heavy: B1 heavy with D428R
light: B1 light
notes: as for B1
B5: Fv4-F1384 (antibody, human IgG1, kappa)
heavy: B1 heavy with D428A
light: B1 light
notes: as for B1
B6: Fv4-F1385 (antibody, human IgG1, kappa)
heavy: B1 heavy with D428Q
light: B1 light
notes: as for B1
B7: Fv4-F1386 (antibody, human IgG1, kappa)
heavy: B1 heavy with D428Y
light: B1 light
notes: as for B1
B8: Fv4-F1388 (antibody, human IgG1, kappa)
heavy: B1 heavy with D428S, Y438F
light: B1 light
notes: as for B1
B9: Fv4-F1389 (antibody, human IgG1, kappa)
heavy: B1 heavy with D428S, Y438T
light: B1 light
notes: as for B1
B10: Fv4-F1390 (antibody, human IgG1, kappa)
heavy: B1 heavy with D428S, Y438H
light: B1 light
notes: as for B1
B11: Fv4-F1391 (antibody, human IgG1, kappa)
heavy: B1 heavy with D428S, Y438N
light: B1 light
notes: as for B1
B12: Fv4-F1392 (antibody, human IgG1, kappa)
heavy: B1 heavy with D428S, Y438K
light: B1 light
notes: as for B1
B13: IL6R-BP183/IL6R-L (antibody, human IgG1, kappa)
heavy: B1 heavy with E235D, L236Y, P240D, P273G, K328A, A332K, D428S, L430M, S436N, K441E
light: not shown
notes: copies: 2 + 2
B14: IL6R-BP196/IL6R-L (antibody, human IgG1, kappa)
heavy: B1 heavy with L236Y, P240D, H270D, P273G, K328A, A332K, D428S, L430M, S436N, K441E
light: not shown
notes: copies: 2 + 2
B15: IL6R-BP197/IL6R-L (antibody, human IgG1, kappa)
heavy: QVQLQESGPGLVKPSETLSLTCAVSGHSISHDHAWSWVRQPPGEGLEWIGFISYSGITNYNPSLQGRVTISRDNSKNTLYLQMNSLRAEDTAVYYCARSLARTTAMDYWGEGTLVTVSSASTKGPSVFPLAPSSKSTSGGTAALGCLVKDYFPEPVTVSWNSGALTSGVHTFPAVLQSSGLYSLSSVVTVPSSSLGTQTYICNVNHKPSNTKVDKKVEPKSCDKTHTCPPCPAPDYLGDDSVFLFPPKPKDTLMISRTPEVTCVVVDVSDEDGEVKFNWYVDGVEVHNAKTKPREEQDNSTYRVVSVLTVLHQDWLNGKEYKCKVSNDALPKPIEKTISKAKGQPREPQVYTLPPSRDELTKNQVSLTCLVKGFYPSDIAVEWESNGQPENNYKTTPPVLDSDGSFFLYSKLTVDKSRWQQGNVFSCSVMHEALHNHYTQESLSLSP
light: not shown
notes: copies: 2 + 2
B16: IL6R-BP211/IL6R-L (antibody, human IgG1, kappa)
heavy: B15 heavy with Y236L, D239G, D298Y, D328A, K332R
light: not shown
notes: copies: 2 + 2
B17: IL6R-BP188/IL6R-L (antibody, human IgG1, kappa)
heavy: B15 heavy with Y236L, D298Y, D328K
light: not shown
notes: copies: 2 + 2
B18: IL6R-BP204/IL6R-L (antibody, human IgG1, kappa)
heavy: B15 heavy with Y236L, D239G, D270H, D298Y, D328A, K332R
light: not shown
notes: copies: 2 + 2
B19: IL6R-BP210/IL6R-L (antibody, human IgG1, kappa)
heavy: B15 heavy with D235E, Y236L, D298Y, D328K, K332R
light: not shown
notes: copies: 2 + 2

Molecular target: T1, human FcRn (human, UniProt P55899 24-297; P61769 21-119)
T1 construct: the construct is not described
T1 sequence (P55899 24-297 limits assumed, chain 1 of 2): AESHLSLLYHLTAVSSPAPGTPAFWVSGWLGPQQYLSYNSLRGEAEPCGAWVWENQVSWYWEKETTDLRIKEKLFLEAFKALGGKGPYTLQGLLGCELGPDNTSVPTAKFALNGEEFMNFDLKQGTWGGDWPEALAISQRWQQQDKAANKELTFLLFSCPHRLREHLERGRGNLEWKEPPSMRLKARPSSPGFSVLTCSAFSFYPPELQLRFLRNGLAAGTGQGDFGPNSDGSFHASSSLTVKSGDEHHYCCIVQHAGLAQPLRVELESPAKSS
T1 sequence (P61769 21-119 limits assumed, chain 2 of 2): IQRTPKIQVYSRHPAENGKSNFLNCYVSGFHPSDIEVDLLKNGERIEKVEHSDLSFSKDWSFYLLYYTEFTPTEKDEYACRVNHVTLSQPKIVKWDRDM
Assay: binding to FcRn at pH 6.0; method not stated

| Binder | Kd |
| --- | --- |
| B1 | 73 nM |
| B2 | 86 nM |
| B3 | 130 nM |
| B4 | 160 nM |
| B5 | 86 nM |
| B6 | 77 nM |
| B7 | 160 nM |
| B8 | 80 nM |
| B9 | 68 nM |
| B10 | 400 nM |
| B11 | 420 nM |
| B12 | 270 nM |

Molecular target: T2, human FcγRIIIa type V (allotype V158) extracellular domain with C-terminal His tag (human, UniProt P08637 17-208)
T2 construct: extracellular domain; also called FcγRIIIaV; FcγRIIIa V type; not shown: His tag at the C terminus
T2 sequence (P08637 17-208 F176V): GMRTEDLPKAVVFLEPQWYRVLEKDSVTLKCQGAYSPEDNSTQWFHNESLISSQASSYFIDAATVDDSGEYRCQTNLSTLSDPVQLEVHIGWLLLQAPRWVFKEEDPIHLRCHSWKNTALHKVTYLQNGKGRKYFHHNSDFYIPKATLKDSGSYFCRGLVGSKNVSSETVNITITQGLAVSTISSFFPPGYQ
Assay: SPR (Biacore), antibody captured, FcγR analyte

| Binder | Kd |
| --- | --- |
| B13 | 56000 nM |
| B14 | 51000 nM |
| B15 | 33000 nM |
| B16 | 73000 nM |

Molecular target: T3, human FcγRIIa type R (allotype R131) extracellular domain with C-terminal His tag (human, UniProt P12318 34-217)
T3 construct: extracellular domain; also called FcγRIIaR; FcγRIIa R type; not shown: His tag at the C terminus
T3 sequence (looked up): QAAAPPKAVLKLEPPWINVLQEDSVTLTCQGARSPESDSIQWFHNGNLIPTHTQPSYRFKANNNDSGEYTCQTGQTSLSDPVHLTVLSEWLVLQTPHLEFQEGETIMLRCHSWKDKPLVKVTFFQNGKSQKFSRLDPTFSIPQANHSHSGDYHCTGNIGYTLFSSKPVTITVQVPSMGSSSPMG
Assay: SPR (Biacore), antibody captured, FcγR analyte

| Binder | Kd |
| --- | --- |
| B13 | 2600 nM |
| B17 | 1000 nM |
| B14 | 3000 nM |
| B15 | 980 nM |
| B18 | 4500 nM |
| B19 | 1000 nM |
| B16 | 4100 nM |
